Biological target: human GITR on activated CD4 T cells (human) (UniProt Q9Y5U5)
Test: FACS binding to activated human CD4 T cells

human GITR on activated CD4 T cells (human), sequence (Q9Y5U5 26-241): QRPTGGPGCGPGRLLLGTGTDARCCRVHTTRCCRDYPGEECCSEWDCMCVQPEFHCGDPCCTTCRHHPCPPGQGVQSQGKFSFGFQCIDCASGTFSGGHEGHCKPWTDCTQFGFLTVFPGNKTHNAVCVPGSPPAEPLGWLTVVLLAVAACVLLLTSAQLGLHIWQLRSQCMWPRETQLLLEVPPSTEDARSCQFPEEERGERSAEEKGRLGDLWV

Row | Substance | EC50 [nM]
1 | unrelated hIgG1 | 132
2 | unrelated hIgG2 | 6.72
